22 molecules from patent US11179342B2, “Peptide coacervates and methods of use thereof” (NANYANG TECHNOLOGICAL UNIVERSITY, priority 2018, dated 2021) can be followed below.

The labels stand for the following.
B1: V2-C: DgHBP-1 variant lacking the first 31 amino acids of the repetitive region, truncated at G98 (protein)
chain: MHHHHHHSSGVDLGTENLYFQSMMGAGFAGHGLHGAGFAGHGLYGAGFAGHGLHGFAGHGLYGAGFAGHGLGLGGLHGALGHGALAHY
modifications: HBP-1 derived peptide V2-C
notes: DgHBP-1 variant lacking the first 31 amino acids of the repetitive region, truncated at G98
B2: V5-N: N-terminus fragment of DgHBP-1 Lys mutant after trypsin cleavage (protein)
chain: MQLYGAPAVGGVVENAVNAAESGAAATHDAQGAYAEADTAGVLDVNHAEHHDGVHDASGYGFGGLAGHGGFAGHGLYGPGFAGHGLLGAGYAGLGLHGAGFAGHGLHGAGFAK
modifications: HBP-1 derived peptide V5-N
notes: N-terminus fragment of DgHBP-1 Lys mutant after trypsin cleavage
B3: V6-N: N-terminus fragment of DgHBP-1 Lys mutant after trypsin cleavage (protein)
chain: MQLYGAPAVGGVVENAVNAAESGAAATHDAQGAYAEADTAGVLDVNHAEHHDGVHDASGYGFGGLAGHGGFAGHGLYGPGFAGHGLLGAGYAGLGLHGAGFAGHGLHGAGFAGHGLYK
modifications: HBP-1 derived peptide V6-N
notes: as for B2
B4: V7-N: N-terminus fragment of DgHBP-1 Lys mutant after trypsin cleavage (protein)
chain: MQLYGAPAVGGVVENAVNAAESGAAATHDAQGAYAEADTAGVLDVNHAEHHDGVHDASGYGFGGLAGHGGFAGHGLYGPGFAGHGLLGAGYAGLGLHGAGFAGHGLHGAGFAGHGLYGAGFAK
modifications: HBP-1 derived peptide V7-N
notes: as for B2
B5: DgHBP-1: recombinant histidine-rich beak protein 1 of Humboldt squid (Dosidicus gigas) (protein)
chain: QLYGAPAVGGVVENAVNAAESGAAATHDAQGAYAEADTAGVLDVNHAEHHDGVHDASGYGFGGLAGHGGFAGHGLYGPGFAGHGLLGAGYAGLGLHGAGFAGHGLHGAGFAGHGLYGAGFAGHGLHGFAGHGLYGAGFAGHGLGLGGLHGALGHGALAHY
modifications: Dosidicus gigas
B6: C-terminal (A82-R172): DgHBP-2 C-terminal trypsin fragment containing the whole repetitive region (protein)
chain: AAQGANAVHNDAAQSHSALAAANTFGHGHAPYAAYGHGVYGHGPYGHGPYGHGLYGHGLYGHGPYGHGLYGHGAFGHGLNAYAPLVGHGLR
modifications: C-terminal fargment of HBP-2
notes: DgHBP-2 C-terminal trypsin fragment containing the whole repetitive region
B7: V1-C: DgHBP-1 mutant lacking the first 66 amino acids, containing all C-terminal modular repeats (protein)
chain: MHHHHHHSSGVDLGTENLYFQSMMGHGGFAGHGLYGPGFAGHGLLGAGYAGLGLHGAGFAGHGLHGAGFAGHGLYGAGFAGHGLHGFAGHGLYGAGFAGHGLGLGGLHGALGHGALAHY
modifications: HBP-1 derived peptide V1-C
notes: DgHBP-1 mutant lacking the first 66 amino acids, containing all C-terminal modular repeats
B8: V3-N: N-terminus fragment of DgHBP-1 Lys mutant after trypsin cleavage (protein)
chain: MQLYGAPAVGGVVENAVNAAESGAAATHDAQGAYAEADTAGVLDVNHAEHHDGVHDASGYGFGGLAGHGGFAGHGLYGPGFAGHGLLGAGYAGLGLHGAGFAK
modifications: HBP-1 derived peptide V3-N
notes: as for B2
B9: N-terminal (M1-R81) fragment: DgHBP-2 N-terminal trypsin fragment lacking the modular repeats (protein)
chain: MQFFGAGPFNTAHHSAVSDAAAAHHDAAGEYAQNAATGLLDTHHNENHDMTHDLANGYGLHEHDEQHHGLADGLHQEYAAR
modifications: N-terminal fragment of HBP-2
notes: DgHBP-2 N-terminal trypsin fragment lacking the modular repeats
B10: V4-N: N-terminus fragment of DgHBP-1 Lys mutant after trypsin cleavage (protein)
chain: MQLYGAPAVGGVVENAVNAAESGAAATHDAQGAYAEADTAGVLDVNHAEHHDGVHDASGYGFGGLAGHGGFAGHGLYGPGFAGHGLLGAGYAGLGLHK
modifications: HBP-1 derived peptide V4-N
notes: as for B2

“Also recorded” adds a separate entry of the source. Bounds are passed on as bounds.

The first data set can be described thus: Circular dichroism spectroscopy of insulin. Type of data set: physicochemical. The note with it: after coacervation and release. An excerpt:
Circular dichroism (CD) spectra was collected using a quartz cuvette of 0.2/0.5 mm optical pathlength. Data collection was done on AVIV 420 Circular Dichroism spectrometer with the following parameters: average of three scans per experiment between wavelength range from 190 to 250 nm, 1.0 nm wavelength steps with 1.00 nm bandwidth and 0.1 s averaging time. Each experiment was repeated for 3 times and averaged to obtain the final spectrum. The final spectrum was then smoothed and plotted using originPro9.1.
(CD spectra are sensitive to the conformation of chiral molecules.)
With “released insulin: insulin released from dissociated coacervates”, the “CD: characteristic minima of α-helices at 208 and 222 nm” value was “still visible”.

The same data set, now with this note: pH 5.5 to 7.5.
As to insulin [reference compound], the “CD: secondary structure” value was “not disrupted”.

A further data set is described as follows: Liquid-liquid phase separation by optical microscopy.
Settings: not given
Type of data set: physicochemical. Here is the method:
In Example 2 below, phase separation behavior of protein variants and peptides was studied using a Zeiss Axio Scope A1 microscope (Carl Zeiss Pte Ltd., Germany) in the reflection mode, with differential interference contrast (DIC) filters. Images were taken with an AxioCam MRc 5 camera under the control of AxioVision software.
Liquid-liquid phase separation properties of protein variants and peptides at different buffer conditions were assessed using the method described in (Tan et al, Nat. Chem. Biol. 11, 488-495). Briefly, protein/peptide stock solution (10 mg/mL in 10 mM acetic acid, pH 3.3) was added to a buffer solution in a volume ratio 1:5 (protein/peptide stock:buffer). The mixture was then pipetted onto a microscopy glass slide and imaged using the optical microscope.
Take B1: the “protein concentration required to form coacervates” value is on record as “ca. 30 μmol”.

Still in this data set, the particulars now being: N-variants, high salt.
Take B2: the “highest pH at which LLPS was observed” value is not above 6.
The same measure, in the same setting: then B3, with 7; and B4, with 8.

Still in this data set, the particulars now being: V7-N at pH 8, V6-N at pH 7, high salt.
On to B3, for which the “minimal peptide concentration for LLPS at the highest pH” value worked out at 400 μM.
Same read-out and setting: the result for B4 reads “at least 500 μM”.

Still in this data set, the particulars now being: at minimal concentration.
Consider B5, for which the “pH range of LLPS” value is on record as 6.5-7.5.

The data set is the same for the next values; noted with them: compared among variants.
Turning to “V3-C: C-terminus fragment of DgHBP-1 Lys mutant after trypsin cleavage, longest section of repetitive region (GHGLHGAGFAGHGLYGAGFAGHGLHGFAGHGLYGAGFAGHGLGLGGLHGALGHGALAHY; HBP-1 derived peptide V3-C)”, the “range of conditions allowing LLPS” value is listed as “broadest pH range among all tested variants”.
In the case of B2, the “range of conditions allowing LLPS” value is listed as “only under narrow conditions”.
On to B3, for which the “range of conditions allowing LLPS” value is recorded as “over a wider range of conditions”.
Still for that read-out and setting: the result for B4 reads “over a wider range of conditions”.

Staying with this data set, now noted: optical micrographs after LLPS.
Turning to “GHGLYGAGFAGAGFAGAGFAGHGLY (GHGLYGAGFAGAGFAGAGFAGHGLY) [GY-25-V1]”, the “morphology of the separated phase” value was “dense and compact hydrogel”.
Still for that read-out and setting: the result for “GHGLYGHGLHGHGLHGHGLHGHGLY (GHGLYGHGLHGHGLHGHGLHGHGLY) [GY-25-V2]” reads “only formed micro-droplets”; that for “GHGLY GHGLY GHGLY GHGLY (GHGLYGHGLYGHGLYGHGLY) [GY-20]”, “only formed micro-droplets”.
The same measure, in the same setting: then B2, with “hydrogels”; and B3, with “hydrogels”; and B4, with “hydrogels”.

Staying with this data set, now noted: pH 8.
On to “V3-C: C-terminus fragment of DgHBP-1 Lys mutant after trypsin cleavage, longest section of repetitive region (GHGLHGAGFAGHGLYGAGFAGHGLHGFAGHGLYGAGFAGHGLGLGGLHGALGHGALAHY; HBP-1 derived peptide V3-C)”, for which the “lowest protein concentration of phase separation” value worked out at 30 µM.

Staying with this data set, now noted: pH range 6.5-7.5.
Regarding B5, the “minimal concentration for LLPS” value was in the range of 20 to 30 µM.

Staying with this data set, now noted: various pH and salt (NaCl) concentration.
With “GA-25: synthetic peptide of HBP-1 repeats harboring only one GHGLY motif (GAGFAGHGLHGAGFAGHGLYGAGFA; HBP-1 derived peptide GA-25)”, the “ability to undergo LLPS / phase separation” value is on record as “remained in solution in all tested buffer conditions”.
On the same count and under the same terms, then GAGFA [pentapeptide], with “no phase separation was observed”; and “GH-25: synthetic peptide of HBP-1 repeats harboring only one GHGLY motif (GHGLHGAGFAGHGLYGAGFAGHGLH; HBP-1 derived peptide GH-25)”, with “remained in solution in all tested buffer conditions”; and “GHGLY GHGLY GHGLY GHGLY (GHGLYGHGLYGHGLYGHGLY) [GY-20]”, with “Phase separation was observed”.
For the molecule GHGLY [pentapeptide], the “ability to undergo LLPS / phase separation” value is reported as “no phase separation was observed”.
With “GY-15-V1: 3 copies of the GHGLY motif arranged in tandem (GHGLYGHGLYGHGLY)”, the “ability to undergo LLPS / phase separation” value is reported as “no phase separation was observed”.
In the case of “GY-15-V2: GAGFA motif flanked by GHGLY (GHGLYGAGFAGHGLY; Artificial peptide GY-15-V2)”, the “ability to undergo LLPS / phase separation” value is “no phase separation was observed”.
Same read-out and setting: then B6, with “phase-separated into coacervates”; and B2, with “only at high salt concentrations”.
Still for that read-out and setting: the result for B3 reads “only at high salt concentrations”; that for B4, “only at high salt concentrations”; that for B7, “underwent phase separation and formed coacervates; also recorded: underwent LLPS in the same way as full-length protein”.
The same measure, in the same setting: then B1, with “formed coacervates”; and B8, with “could not be induced”; and B9, with “only the C-terminal fragment phase-separated”.
Turning to B10, the “ability to undergo LLPS / phase separation” value is “could not be induced”.

Staying with this data set, now noted: various pH and salt (NaCl) concentration; listed as V-2C.
Take B1: the “ability to undergo LLPS / phase separation” value is listed as “underwent LLPS in the same way as full-length protein”.
